Where no end group is shown, it is not given here.
T1: Sirt2-(43-356) (human, UniProt Q8IXJ6 43-356)
T1 sequence (looked up): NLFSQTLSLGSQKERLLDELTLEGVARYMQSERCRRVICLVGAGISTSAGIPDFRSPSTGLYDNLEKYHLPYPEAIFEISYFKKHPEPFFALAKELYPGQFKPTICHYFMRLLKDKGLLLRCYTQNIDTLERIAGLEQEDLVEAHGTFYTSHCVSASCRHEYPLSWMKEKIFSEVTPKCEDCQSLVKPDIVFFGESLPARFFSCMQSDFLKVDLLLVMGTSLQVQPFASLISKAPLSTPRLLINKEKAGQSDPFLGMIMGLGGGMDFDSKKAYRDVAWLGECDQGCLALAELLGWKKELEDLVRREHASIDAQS

T2: human full-length Sirt1 (human, UniProt Q96EB6 1-747)
T2 sequence (looked up): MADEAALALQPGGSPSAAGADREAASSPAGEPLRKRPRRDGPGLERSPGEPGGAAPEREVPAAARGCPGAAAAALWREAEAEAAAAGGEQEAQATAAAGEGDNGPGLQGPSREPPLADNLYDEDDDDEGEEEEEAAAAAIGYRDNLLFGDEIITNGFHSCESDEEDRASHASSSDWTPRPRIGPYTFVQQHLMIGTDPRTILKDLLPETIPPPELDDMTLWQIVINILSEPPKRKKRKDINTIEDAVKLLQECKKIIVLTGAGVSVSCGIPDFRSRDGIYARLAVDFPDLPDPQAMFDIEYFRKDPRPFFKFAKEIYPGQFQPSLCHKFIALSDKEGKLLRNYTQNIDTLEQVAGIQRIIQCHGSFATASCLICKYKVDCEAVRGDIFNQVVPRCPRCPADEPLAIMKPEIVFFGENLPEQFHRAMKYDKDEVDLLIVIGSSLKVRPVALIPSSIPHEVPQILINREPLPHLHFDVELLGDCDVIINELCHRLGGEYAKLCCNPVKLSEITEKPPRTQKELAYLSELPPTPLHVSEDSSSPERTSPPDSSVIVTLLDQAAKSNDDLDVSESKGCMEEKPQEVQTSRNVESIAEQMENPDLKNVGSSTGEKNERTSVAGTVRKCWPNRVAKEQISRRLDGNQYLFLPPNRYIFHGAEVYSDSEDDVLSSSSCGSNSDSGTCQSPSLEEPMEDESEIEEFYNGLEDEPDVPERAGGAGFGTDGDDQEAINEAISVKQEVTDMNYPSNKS

T3: human Sirt3-(118-399) (human, UniProt Q9NTG7 118-399)
T3 construct: human Sirt3, residues 118-399; The construct used for crystallization; also called hSirt3-(118-399); source: E. coli CodonPlus(DE3), pVFT3S, purified (nickel NTA, protease digestion, second nickel NTA, SEC)
T3 sequence (looked up): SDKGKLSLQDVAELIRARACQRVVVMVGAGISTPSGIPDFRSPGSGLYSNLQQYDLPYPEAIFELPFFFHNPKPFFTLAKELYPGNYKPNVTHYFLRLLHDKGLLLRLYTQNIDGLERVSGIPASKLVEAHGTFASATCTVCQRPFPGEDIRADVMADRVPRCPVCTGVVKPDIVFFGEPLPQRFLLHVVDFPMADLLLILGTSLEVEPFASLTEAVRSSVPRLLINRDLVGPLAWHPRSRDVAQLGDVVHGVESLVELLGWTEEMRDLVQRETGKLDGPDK

B1: Tat-Cys^−-(1–86), full-length HIV1 Tat (Zaire 2 isolate) with its 7 Cys residues replaced by Ser/Ala (natural protein)
chain: MDPVDPNIEPWNHPGSQPKTASNRAHAKKSAYHSQVAFITKGLGISYGRKKRRQRRRPSQGGQTHQDPIPKQPSSQPRGDPTGPKE
B2: human mini-Sirt1 (aa 183-505-(GGGS)2-641-665) (enzyme)
chain: GPYTFVQQHLMIGTDPRTILKDLLPETIPPPELDDMTLWQIVINILSEPPKRKKRKDINTIEDAVKLLQECKKIIVLTGAGVSVSCGIPDFRSRDGIYARLAVDFPDLPDPQAMFDIEYFRKDPRPFFKFAKEIYPGQFQPSLCHKFIALSDKEGKLLRNYTQNIDTLEQVAGIQRIIQCHGSFATASCLICKYKVDCEAVRGDIFNQVVPRCPRCPADEPLAIMKPEIVFFGENLPEQFHRAMKYDKDEVDLLIVIGSSLKVRPVALIPSSIPHEVPQILINREPLPHLHFDVELLGDCDVIINELCHRLGGEYAKLCCNPVGGGSGGGSQYLFLPPNRYIFHGAEVYSDSEDDV
notes: artificial linker, printed as (GGGS)2; human Sirt1, residues 641-665 (ESA region); Modified pET-19b with TEV cleavage site; source: E. coli CodonPlus(DE3), purified (nickel NTA, protease digestion, second nickel NTA, SEC)
B3: ac-Tat-46–54 (peptide)
peptide: SYGRK(Ac)KRRQ
notes: HIV1 Tat, residues 46-54, acetylated at Lys50; also called Tat substrate peptide

Key:
Sirt2-(43-356) = molecular target: T1, Sirt2-(43-356); experiment: cell-based or functional assay
human mini-Sirt1 (aa …) = molecular target: B2; experiment: cell-based or functional assay
human full-length Sirt1 = molecular target: T2, human full-length Sirt1; experiment: cell-based or functional assay
[1] = molecular target: Sirt3 (as used in the activity assays) (human); experiment: cell-based or functional assay
[2] = molecular target: B1; experiment: NMR titration; unlabeled mini-Sirt1 (stock 260 µM) added stepwise to 100 µM 15N-labeled Tat-Cys^−; 150 mM sodium chloride, 10 mM potassium phosphate pH 6.4; 2D-(1H,15N)-HSQC at 298 K; conditions: both partners purified
human Sirt3-(118-399) = molecular target: T3, human Sirt3-(118-399); experiment: crystal structure; 10 mg/mL Sirt3-(118-399) incubated with 2 mM peptide for 60 min at 20 °C; sitting-drop vapor diffusion at 20 °C (MES pH 6.0/PEG 200/PEG 3000 for ac-Tat-46-54; CHES pH 9.0/PEG 8000 for Tat-37-59); conditions: both partners purified

B1
inhibition of Sirt2 in the FdL assay at substrate Km; IC50 (Sirt2-(43-356)): 11 µM | inhibition of mini-Sirt1 deacetylation of p53 substrate, coupled-enzyme assay at substrate Km; IC50 (human mini-Sirt1 (aa …)): 30 to 40 µM | inhibition of mini-Sirt1 in the FdL assay at substrate Km; IC50 (human mini-Sirt1 (aa …)): 2.3 µM | inhibition of fl-Sirt1 deacetylation of FdL substrate, FdL assay at substrate Km; IC50 (human full-length Sirt1): 3.6 µM | inhibition of fl-Sirt1 deacetylation of a p53-derived peptide, coupled enzymatic assay, 100 µM substrate; IC50 (human full-length Sirt1): ~20 µM | inhibition of Sirt3 in the FdL assay at substrate Km; IC50 [1]: 15.9 µM

B2
binding result [2]: binds

B3
binding result (human Sirt3-(118-399)): binds

— paper PMC10144703, “Molecular Mechanism of Sirtuin 1 Inhibition by Human Immunodeficiency Virus 1 Tat Protein” (Life, 2023)
